Experimental findings from publication PMC12697983 (PLOS Pathogens, 2025) are described below.

This assay concerns the target SARS-CoV-2 wild-type spike receptor-binding domain (WT-RBD) (SARS-CoV-2, UniProt P0DTC2). Briefly: SPR. To be noted: both partners purified.

B1: 1C4 (murine monoclonal antibody, IgG format) (antibody, V domains shown)
VH: QIQLVQSGPELKKPGETVKISCKASGYTFTDYGLNWVKQAPGKGLKWMGWINTYSGEPTYNDEFRGRFAFSLETSTITAYLKINNLKNEDTATYFCARGGNWDWYFDVWGAGTTVTVSS
VL: DIVLTQSPATLSVTPGDNVSLSCRASQIISNNLHWYQQKSHESPRLLIKYASQSISGIPSRFSGSGSGTDFTLSINSVETEDFGMYFCQQSNTWPLTCGSGTKLELN
For the molecule B1, binding was put at a Kd of 0.488 nM.
